Experimental data as given in publication PMC3116811 (PLoS Pathogens, 2011).

Target: T1, chimeric Nb_An05-Fc HCAb (Nb_An05 fused to the hinge and Fc-domain of human IgG1) (camelid)
T1 construct: also called synthetic HCAb; reconstituted HCAb; not shown: Fc (human IgG1, including the hinge), C-terminal, kept
Experiment: ELISA; format not told; Nb_An05-Fc HCAb on the VSG antigen
Conditions: both partners purified

B1: purified soluble AnTat1.1 VSG (variant-specific surface glycoprotein of Trypanosoma brucei AnTat1.1) (natural protein)
chain: QTAGRPLADVVGKTLCTYSKTAKRQAANLAQTLQRASSAAKQSRQAQQLAALALAKLPDYKEAAATLLIYATHKIQDAQASIENWTGENTKLVGQAMYSSGRIDELMLLLEGHREDGANGQDKTCLGAAAGGNTVNEFVKTECDTESGHNIEADNSNIGQAATTLSQESTDPEASGGASCKITANLATDYDSHANELPLLGGLLTIHNAGGFKTGQSLQTAAPTNKLISALKNKGAGVAAKLATVTSAAPTSKQELKTLLASKGERAKLQAANDEYNNWKPGAKPEDFDAHIKKVFGAEDGKDSAYAIALEGISIEAPLGGGQTQNKQLYSMQPKDLMAALIGTIAELQTAAATKPACPGHKQTTTESDALCSKIKDANECNSKHFCSYNGTETDSAKKCKYNATKASASDAPVTQAQTTSRSETPAEKCTGKKKDDCKDGCKWEAETCKD
**Q.** Does B1 bind?
**A.** binds
